Patent US4508828A, “Bioassay of parathyroid hormone” (Immuno Nuclear Corporation, priority 1983, dated 1985)
Entries after “also recorded” stand apart in the source; their conditions may differ. Each block holds one molecule with its values, some of them ahead of it.

Target: T1, adenylate cyclase-coupled PTH receptors (Rattus norvegicus, UniProt P25961)
T1 construct: 96-well tissue culture plate containing the rat osteogenic sarcoma cells; endogenous in cells; host or cells: rat osteogenic sarcoma cells (obtained by the methods of Partridge et al. 1981 and Majeska et al. 1980)
T1 sequence (P25961 27-591): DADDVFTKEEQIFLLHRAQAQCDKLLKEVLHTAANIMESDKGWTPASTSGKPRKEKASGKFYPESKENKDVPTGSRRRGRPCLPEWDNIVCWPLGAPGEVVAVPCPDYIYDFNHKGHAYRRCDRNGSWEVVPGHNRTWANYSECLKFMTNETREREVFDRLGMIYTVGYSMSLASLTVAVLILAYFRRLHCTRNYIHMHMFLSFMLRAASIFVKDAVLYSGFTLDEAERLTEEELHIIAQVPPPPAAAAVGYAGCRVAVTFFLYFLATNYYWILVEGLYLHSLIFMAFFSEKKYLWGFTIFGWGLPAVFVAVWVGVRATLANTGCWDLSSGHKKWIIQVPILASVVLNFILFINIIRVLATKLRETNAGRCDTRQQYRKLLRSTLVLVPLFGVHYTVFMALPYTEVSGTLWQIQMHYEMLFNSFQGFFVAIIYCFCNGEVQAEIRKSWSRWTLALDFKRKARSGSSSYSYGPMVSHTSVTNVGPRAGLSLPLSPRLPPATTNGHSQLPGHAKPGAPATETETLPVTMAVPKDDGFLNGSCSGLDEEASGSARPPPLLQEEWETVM
Experiment: PTH bioassay: cAMP generation in rat osteogenic sarcoma cell culture, cAMP by radioimmunoassay
Assay type: cell-based
Conditions: for cell culture response, human versus bovine bioactive PTH: hPTH^1-34 compared with bPTH^1-34, FIG. 2; for bioactivity (cAMP generation): standards of the peptide alone, FIG. 3; for suppression of cAMP generation by serum in the bioassay medium: FIG. 5
Protocol: Rat osteogenic sarcoma cells are maintained in culture in Dulbecco's modified Eagle medium ("DMEM"), disclosed in R. Dulbecco, VIROLOGY, 8: 396 (1959), J. Smith, et al., VIROLOGY, 12: 185-196 (1960), Tissue Culture Standards Committee, IN VITRO, 6(2): 93 and available from Gibco, Grand Island, N.Y., containing 1% fetal calf serum, 9% heat-inactivated horse serum, 100 units/ml of penecilin G and 100 μg/ml streptomycin sulfate in sodium sulfate and normal saline solution, available as a concentrate from Gibco, supra. Cells are maintained in this medium in a humidified atmosphere of 5% carbon dioxide and 95% air at 37° C. This rat osteogenic sarcoma cell culture can be obtained according to the methods set forth in N. Partridge, et al., "Functional Properties Of Hormonally Responsive Cultured Normal And Malignant Rat Ostoblastic Cells," ENDOCRINOLOGY, 108: 213-219 (1981), which is incorporated in its entirety herein by reference thereto. This method of obtaining the cell culture is further described in R. Majeska, et al., "Parathyroid Hormone--Responsive Clonal Cell Lines From Rat Osteosarcoma," ENDOCRINOLOGY, 107: 1494-1503 (1980) and R. Majeska, "Maintenance Of Parathyroid Hormone Response in Clonal Rat Osteosarcoma Cell Lines," EXP. CELL RES., 111: 465 (1978), also incorporated in their entirety herein by reference thereto.
Cells are subcultured from confluent monolayers by removing the culture medium, rinsing the cell layer with Dulbecco's phosphate buffered saline, 0.2 g/l KCl, 0.2 g/l KH2 PO4, […], and Na2 HPO4.7H2 O and available from Gibco, supra, and adding trypsin/EDTA, 0.5 g trypsin (1:250) and 0.2 g EDTA-4Na/l Hank's balanced salt solution without CaCl2, MGCL2.6H2 O and MgSO4.7H2 O and available from Gibco, supra, to cover the cell layer. After 1 minute at 20°-25° C., the trypsin/EDTA is removed and the cells are incubated for 2-3 minutes at 37° C. The cells are resuspended in DMEM and one-fifth to one-tenth of the cells are added to a culture flask of equal size.
For use in the bioassay of PTH, the above cell suspension is diluted with 4 volumes of DMEM and 0.1 ml of the suspension is pipetted into each well of a 96-well tissue culture plate available from Becton Dickinson Labware, Oxnard, Calif. The cells are cultured in the same atmosphere as above and are ready for use in the bioassay in 24-28 hours.
15. The dried eluates are dissolved in 0.6 ml of bioassay medium at 20°-25° C., said bioassay medium consisting of 0.1% glucose, 1% BSA, 1 mM methylisobutylxanthine, and 0.005% phenol red in Dulbecco's phosphate buffer saline (pH 7.3 or within range of about 7-7.5).
To perform the bioassay of PTH, the medium is removed from all wells of the 96-well tissue culture plate containing the rat osteogenic sarcoma cells by inversion of the plate and blotting of any remaining drops of medium. The plate is replaced upright and 100 μl of the redissolved N-terminal affinity column eluates are added to each of 4 wells of the plate. The plate is incubated at 20°-25° C. for 30 minutes. At this time, the plate is inverted and blotted to remove all remaining medium, replaced upright and placed on ice.
Each well is washed 3 times by addition of 300 μl of ice cold 0.85% saline followed by inversion and […]. After the third saline wash, 200 μl of ice cold 95% ethyl alcohol containing 0.02M HCl (EtOH/HCl) is added to each well and the plate is incubated at -20° C. for 16-24 hours in order to extract the cAMP from the cells. At the end of this extraction, the EtOH/HCl is removed from each well with a pipet and rinsed with an additional 200 μl of EtOH/HCl. The rinse is combined with the original extract and the solution is dried. An appropriate device for drying the EtOH/HCl samples is a Speed-Vac Concentrator/Evaporator, available from Savant Instruments, Inc., Hicksville, N.Y. The amount of cAMP extracted from the cell layer in each well is quantitated using a radioimmunoassay for cAMP. […]

Molecule: hPTH^1-34: human parathyroid hormone fragment 1-34, available from Peninsula Laboratories
cell culture response, human versus bovine bioactive PTH: respond similarly; also recorded: very close correlation of response

Molecule: bPTH^1-34: bovine parathyroid hormone fragment 1-34
cell culture response, human versus bovine bioactive PTH: respond similarly; also recorded: very close correlation of response

antagonism of bPTH^1-84 (inhibition of cAMP generation) (bPTH^1-84 added to the standards, FIG. 4): very strong antagonist
bioactivity (cAMP generation): virtual absence of bioactivity
bioactivity (cAMP generation) (listed as hPTH^3-34 amide): not bioactive
Molecule: (norleucine^8,18)bPTH^3-34 amide

Molecule: hPTH^65-84: human parathyroid hormone fragment 65-84 (KSLGEADKADVNVLTKAKSQ; Parathyroid hormone; UniProt P01270 96-115, looked up, fragment)
bioactivity (cAMP generation): not bioactive; also recorded: virtual absence of bioactivity

Molecule: hPTH^37-84: human parathyroid hormone fragment 37-84 (LGAPLAPRDAGSQRPRKKEDNVLVESHEKSLGEADKADVNVLTKAKSQ; Parathyroid hormone; UniProt P01270 68-115, looked up, fragment)
bioactivity (cAMP generation): not bioactive; also recorded: virtual absence of bioactivity

suppression of cAMP generation by serum in the bioassay medium (10% serum (fetal calf serum) in bioassay medium): 50 fold
suppression of cAMP generation by serum in the bioassay medium (50% serum (human serum) in bioassay medium): 100 fold
B1: PTH^1-84: parathyroid hormone 1-84 standards of the bioassay (bovine PTH 1-84 standard) (protein, UniProt P01268 32-115, looked up)
Parathyroid hormone: AVSEIQFMHNLGKHLSSMERVEWLRKKLQDVHNFVALGASIAYRDGSSQRPRKKEDNVLVESHQKSLGEADKADVDVLIKAKPQ
modifications: Parathyroid hormone
